Target: Aβ(1-40) peptide, monomeric (UniProt P05067 672-711)
Assay: SPR

B1: anticalin H1GA (Aβ-anticalin) (designed binder)
chain: QDSTSDLIPAPPLSKVPLQQNFQDNQFHGKWYVVGAAGNVLLREDKDPLKMYATIYELKEDKSYNVTSVGFDDKKCLYKIRTFVPGSQPGEFTLGRIKSEPGGTSWLVRVVSTNYNQHAMVFFKEVAQNRETFNITLYGRTKELTSELKENFIRFSKSLGLPENHIVFPVPIDQCIDG
In the case of B1, the Kd is reported as 0.54 nM.

Reference: paper PMC11237084 (2024)
